The record followed here is US20210371508A1 (University of Texas, published 2021).

B1: NMES1, endogenous, in human breast cancer cells (BoM-1833) (ligand, UniProt Q9C002 1-83, looked up)
chain: MSFFQLLMKRKELIPLVVFMTVAAGGASSFAVYSLWKTDVILDRKKNPEPWETVDPTVPQKLITINQQWKPIEELQNVQRVTK
notes: Endogenous protein of the cells used for co-IP and for the cell assays; also called C15orf48
B2: NMES-4 anti-NMES1 monoclonal antibody (antibody, IgG1, V domains shown)
VH: EVQLVQSGGEVKKPGSSVKVSCKASGGTFSTYAISWVRQAPGQGLEWMGGIIPIFGTTNYAQKFQGRVTITADRSTSTAYMELSSLRSEDTAVYYCARVSELGDYYAMDVWGQGTTVTVSS
VL: DIQMTQSPSSLSASVGDRVTITCRASQGIASALAWYQQKPGKAPKLLIYDASNLESGVPSRFSGSGSGTDFTLTISSLQPEDFATYYCQQAHSFPLTFGGGTKLEIK
notes: also called NM-4; NMES1-4
B3: NMES-5 anti-NMES1 monoclonal antibody (antibody, IgG1, V domains shown)
VH: QVQLVQSGAEVKKPGASVKVSCKASGYTFTSYGISWVRQAPGQGLEWMGWISAYNGNTNYAQKLQGRVTMTTDTSTSTAYMELRSLRSDDTAVYYCARATRGNAFDIWGQGTMVSVSS
VL: QSALTQPASVSGSPGQSITISCTGTSSDVGAYNYVSWYQQHPGKAPKLMIYDVSNRPSGVSNRFSGSKSGNTASLTISGLQAEDEADYYCSSYTRSTTVVFGGGTKVTVL
notes: also called NM-5; NMES1-5
B4: NMES-6 anti-NMES1 monoclonal antibody (antibody, IgG1, V domains shown)
VH: B3 VH with T100V, R101G, G102Q, N103L, I107Y, M113L, S115T
VL: QSALNQPPSASGSPGQSVTISCTGTSSDVGGYNYVSWYQQHPGKAPKLMIYEVSKRPSGVPDRFSGSKSGNTASLTVSGLQAEDEADYYCSSYAGSNNLVFGGGTKVTVL
notes: also called NM-6; NMES1-6
B5: NMES-10 anti-NMES1 monoclonal antibody (antibody, IgG1, V domains shown)
VH: B3 VH with R101F, M113T, S115T
VL: QSALTQPASVSGSPGQSITISCTGTSSDVGGYNYVSWYQQHPGKAPKLMIYDVSNRPSGVSNRFSGSKSGNTASLTISGLQAEDEADYYCSSYTSSSTLVVFGGGTKVTVL
notes: also called NM-10; NMES1-10
B6: NMES-3 anti-NMES1 monoclonal antibody (antibody, IgG1, V domains shown)
VH: EVQLLQSGGGVVRPGGSLRLSCAASGFTFDDYGMSWVRQAPGKGLEWVSGINWNGGSTGYADSVKGRFTISRDNAKNSLYLQMNSLRAEDTALYYCARASMVRGVYAFDIWGQGTMVIVSS
VL: DVQMTQSPSSLSASIGDRVTITCRASQSIGSYLNWYQQRPGKAPKLLIYSASSLQSGVPSRFSGSGSRSDFTLTIASLQPEDFATYYCQQSYSGPYTFGQGTKVDIK
notes: also called NM-3; NMES1-3
B7: NMES-7 anti-NMES1 monoclonal antibody (antibody, IgG1, V domains shown)
VH: EVQLVQSGAEVKKPGASVKVSCKASGYTFNRDAISWVRQAPGQGLEWMGWISGYNGNTYYAHKVLGRATMTTDTSTNTAYMELRSLTSDDTAMYYCARVGLQPDTTMDHWGQGTLVTVSS
VL: DIQMTQSPSSLSASVGDRVTITCRASQDIRNDLAWYQQKPGKAPKLLIYTASSLQTGVPSRFSGSGSGTDFTLSISSLQPEDFATYYCLQDYKYPLTFGGGTKLEIK
notes: also called NM-7; NMES1-7
B8: NMES-1 anti-NMES1 monoclonal antibody (antibody, V domains shown)
VH: QVQLVQSGGGVVQPGRSLRLSCAASGFTFSSYAMHWVRQAPGKGLEWVAVISYDGSNKYYADSVKGRFTISRDNSKNTLYLQMNSLRAEDTAVYYCARLSRFGDESLKDPDYWGQGTLVTVSS
VL: DIVMTQSPLSLPVTLGQPASISCRSSQSLVHSDGNTYLNWFQQRPGQSPRRLIYKVSNRDSGVPDRFSGSGSGTDFTLKISRVEAEDVGVYYCMQGAHWPPTFGPGTKLEIK
notes: also called NM-1; NMES1-1

Numbering of substitutions follows the chain as printed.

For one experiment, the target named is T1, transferrin receptor 1 (TFRC) (human, UniProt P02786 1-760).
T1 construct: Endogenous protein in cell or membrane extracts used for co-IP
T1 sequence (P02786 whole entry): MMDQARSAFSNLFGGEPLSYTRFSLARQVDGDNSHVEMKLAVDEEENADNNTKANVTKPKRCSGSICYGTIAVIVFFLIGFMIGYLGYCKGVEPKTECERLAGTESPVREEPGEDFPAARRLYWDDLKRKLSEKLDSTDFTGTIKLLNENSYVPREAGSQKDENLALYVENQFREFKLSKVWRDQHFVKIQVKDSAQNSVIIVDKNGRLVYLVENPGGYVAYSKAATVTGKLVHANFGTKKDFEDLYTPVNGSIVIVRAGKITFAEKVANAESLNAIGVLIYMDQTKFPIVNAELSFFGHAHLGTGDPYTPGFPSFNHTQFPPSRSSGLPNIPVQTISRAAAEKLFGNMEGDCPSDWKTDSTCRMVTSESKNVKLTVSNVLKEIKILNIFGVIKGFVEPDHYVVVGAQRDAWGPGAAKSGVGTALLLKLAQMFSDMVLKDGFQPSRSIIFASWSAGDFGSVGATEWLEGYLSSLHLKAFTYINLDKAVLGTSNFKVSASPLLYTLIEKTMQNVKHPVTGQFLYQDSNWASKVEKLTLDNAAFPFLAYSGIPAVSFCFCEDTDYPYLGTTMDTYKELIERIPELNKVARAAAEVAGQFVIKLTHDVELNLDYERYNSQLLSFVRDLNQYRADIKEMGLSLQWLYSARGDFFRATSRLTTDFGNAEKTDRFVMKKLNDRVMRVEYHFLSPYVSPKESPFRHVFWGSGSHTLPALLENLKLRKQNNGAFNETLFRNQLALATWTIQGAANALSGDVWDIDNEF
Kind of experiment: co-IP with α-NMES1 from NMES1-KD 1833 cells, western blot for TFRC; weaker TFRC band, number is normalised to the lower input.
As to B1, the “Fold (IP/Input), TFRC” value came out at 74.9 fold.

Another experiment has as its target T2, recombinant human NMES1 protein (Normal Mucosa of Esophagus Specific 1) (human, UniProt Q9C002 1-83, limits assumed).
T2 construct: also called rhNMES1; recombinant NMES1 protein
Kind of experiment: titration ELISA, plate coated with recombinant NMES1 (1 µg/mL), anti-human IgG Fc HRP detection. Here is the method:
(§1) Binding constants (EC50) of a panel of monoclonal antibodies were estimated by titration ELISA and data is analyzed using the 4 parameter curve fitting with GraphPad Prism program (Table 5). […] All experiments were performed with shaking at 1,000 rpm. Background wavelength shifts were measured from reference biosensors that were loaded only with antibody with antigen. ForteBio's data analysis software was used to fit the data to a 1:1 binding model to extract an association rate and dissociation rate.
Anti-human IgG Fc HRP-conjugated antibody was diluted 1:5000 and added at a volume of 100 μl per well for incubation at 37° C. for 1 hour. The plates were washed 3 times with PBST (0.05% Tween-20) between incubation steps. TMB substrate was added 100 μl per well for color development and 2 M H2504 was added 50 μl per well to stop the reaction. The absorbance at 450 nm was read by SpectraMax microplate reader. For EC50 determination, data points were plotted by GraphPad Prism8. EC50 values were calculated using a three-parameter nonlinear model.
(In general: ELISA stands for enzyme-linked immunosorbent assay.)
In the case of B2, the EC50 (in general, the concentration that produces a half-maximal response) amounted to 4.37 nM.
In the case of B3, the EC50 is 0.216 nM.
B4: the EC50 amounted to 2.39 nM.
In the case of B5, the EC50 was found to be 306 nM.
With B6, the EC50 was 40.6 nM.
For B7, the EC50 amounted to 14.4 nM.
Turning to B8, the EC50 came to 2.98 nM.

A further experiment has as its target T2, recombinant human NMES1 protein (Normal …). Kind of experiment: BLI (Octet), antibody on protein A biosensors, recombinant NMES1 0-900 nM, 1:1 fit. How it is done:
as §1
(In general: BLI is a label-free optical method that tracks binding on a fibre tip over time.)
For the molecule B2, the Kd (commonly the concentration at which binding is half-saturated) was found to be 17.1 nM, the koff (usually a measure of how fast the partners let go of each other) worked out at 0.00382 s⁻¹ and the kon (usually the rate constant with which the complex forms) was 223000 M⁻¹ s⁻¹.
For B3, the Kd stood at 27.9 nM, the koff is 0.00463 s⁻¹ and the kon stood at 166000 M⁻¹ s⁻¹.
For the molecule B4, the Kd stood at 19.5 nM, the koff was 0.00441 s⁻¹ and the kon is 227000 M⁻¹ s⁻¹.
Consider B5, for which the Kd stood at 89.9 nM, the koff was 0.0131 s⁻¹ and the kon is 146000 M⁻¹ s⁻¹.
For B6, the Kd was 56 nM, the koff is 0.00301 s⁻¹ and the kon turned out to be 53800 M⁻¹ s⁻¹.
Turning to B7, the Kd was determined as 39.8 nM, the dissociation rate constant (koff) was found to be 0.00595 s⁻¹ and the kon amounted to 150000 M⁻¹ s⁻¹.
Consider B8, for which the Kd came out at 15.5 nM, the koff was determined as 0.00499 s⁻¹ and the on-rate (kon) was 323000 M⁻¹ s⁻¹.

For another experiment, the target named is T1, transferrin receptor 1 (TFRC). Kind of experiment: co-IP with α-NMES1 from Ctrl 1833 cells, western blot for TFRC; strong TFRC band.
As for B1, the “Fold (IP/Input), TFRC” value was found to be 79.8 fold.
